Target: mouse ANKRD16^3xArg (recombinant) (mouse) (UniProt A2AS55)
Experiment: SwitchSENSE

fold change in affinity against wild type ANKRD16: 2 fold
Substance: mouse AlaRS^A734E (recombinant, SwitchSENSE and biochemical assays) (from UniProt Q8BGQ7 1-968) (enzyme)
